Assay results: PMC5748976 (The Journal of Cell Biology, 2018)

Experiments:
[1] = target: recombinant His-tagged FAK (focal adhesion kinase) (UniProt Q05397 1-1052); test: pull-down
[2] = target: recombinant His-tagged Pyk2 (proline-rich tyrosine kinase 2) (UniProt Q14289 1-1009); test: pull-down
Sequence of recombinant His-tagged Pyk2 (proline-rich tyrosine kinase 2) (Q14289 whole entry): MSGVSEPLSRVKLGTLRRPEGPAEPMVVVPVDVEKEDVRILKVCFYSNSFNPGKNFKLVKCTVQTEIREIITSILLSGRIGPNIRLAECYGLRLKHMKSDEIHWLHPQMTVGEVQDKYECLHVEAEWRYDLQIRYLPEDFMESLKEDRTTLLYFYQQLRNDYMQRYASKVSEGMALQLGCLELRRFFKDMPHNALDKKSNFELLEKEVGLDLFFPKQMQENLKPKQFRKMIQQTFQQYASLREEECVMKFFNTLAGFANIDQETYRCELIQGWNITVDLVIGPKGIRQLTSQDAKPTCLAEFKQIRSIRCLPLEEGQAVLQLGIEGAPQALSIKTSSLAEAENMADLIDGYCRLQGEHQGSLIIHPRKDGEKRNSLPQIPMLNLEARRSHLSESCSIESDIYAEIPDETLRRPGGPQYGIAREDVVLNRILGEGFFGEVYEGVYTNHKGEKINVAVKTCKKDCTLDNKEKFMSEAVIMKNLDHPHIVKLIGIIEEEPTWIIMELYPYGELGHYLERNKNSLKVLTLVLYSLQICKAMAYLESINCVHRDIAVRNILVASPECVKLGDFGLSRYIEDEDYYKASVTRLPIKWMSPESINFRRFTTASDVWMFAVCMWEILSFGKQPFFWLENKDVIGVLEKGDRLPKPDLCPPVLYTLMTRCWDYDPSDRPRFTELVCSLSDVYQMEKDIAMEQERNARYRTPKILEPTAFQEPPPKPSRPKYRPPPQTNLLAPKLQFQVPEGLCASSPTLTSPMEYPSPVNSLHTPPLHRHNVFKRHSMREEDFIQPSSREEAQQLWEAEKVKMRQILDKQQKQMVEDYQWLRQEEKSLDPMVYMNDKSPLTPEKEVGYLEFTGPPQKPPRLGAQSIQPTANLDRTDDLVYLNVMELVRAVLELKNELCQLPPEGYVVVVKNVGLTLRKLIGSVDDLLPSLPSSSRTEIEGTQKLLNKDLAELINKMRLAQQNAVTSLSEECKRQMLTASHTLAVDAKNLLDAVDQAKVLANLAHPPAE

Sequence of recombinant His-tagged FAK (focal adhesion kinase) (Q05397 whole entry): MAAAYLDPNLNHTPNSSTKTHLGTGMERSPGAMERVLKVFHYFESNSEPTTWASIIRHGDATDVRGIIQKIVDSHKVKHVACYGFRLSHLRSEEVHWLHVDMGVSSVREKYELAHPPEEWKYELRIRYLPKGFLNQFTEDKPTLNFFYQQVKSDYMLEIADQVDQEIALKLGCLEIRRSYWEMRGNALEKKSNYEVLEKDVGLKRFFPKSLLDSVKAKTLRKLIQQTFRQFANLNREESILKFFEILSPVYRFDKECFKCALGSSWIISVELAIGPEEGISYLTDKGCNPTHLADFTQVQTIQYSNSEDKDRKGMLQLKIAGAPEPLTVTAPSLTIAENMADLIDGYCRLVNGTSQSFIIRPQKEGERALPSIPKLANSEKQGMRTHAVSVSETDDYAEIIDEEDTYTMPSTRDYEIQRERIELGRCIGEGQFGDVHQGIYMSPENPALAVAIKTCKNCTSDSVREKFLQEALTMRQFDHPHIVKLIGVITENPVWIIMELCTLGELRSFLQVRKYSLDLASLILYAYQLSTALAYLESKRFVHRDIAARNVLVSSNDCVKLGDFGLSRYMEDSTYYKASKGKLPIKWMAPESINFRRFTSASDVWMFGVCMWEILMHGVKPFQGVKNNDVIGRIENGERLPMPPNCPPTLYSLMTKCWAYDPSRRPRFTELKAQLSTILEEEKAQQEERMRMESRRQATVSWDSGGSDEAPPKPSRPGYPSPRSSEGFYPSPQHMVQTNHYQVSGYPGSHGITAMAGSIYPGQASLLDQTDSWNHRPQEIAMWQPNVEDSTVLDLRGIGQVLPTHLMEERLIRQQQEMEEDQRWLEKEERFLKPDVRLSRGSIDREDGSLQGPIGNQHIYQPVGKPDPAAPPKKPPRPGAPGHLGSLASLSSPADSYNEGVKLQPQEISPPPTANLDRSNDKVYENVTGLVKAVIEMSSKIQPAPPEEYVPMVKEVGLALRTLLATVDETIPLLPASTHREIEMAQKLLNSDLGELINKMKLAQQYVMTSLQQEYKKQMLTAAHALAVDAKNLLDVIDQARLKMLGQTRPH

B1: recombinant His-tagged cortactin (natural protein)
chain: not shown
Kd [1]: 2160 ± 683 nM | Kd [2]: 490 ± 138 nM
